Here are results for one substance from PMC9023282.

The target in this experiment is GINS complex (Gins51 and Gins23), wild type (Thermococcus kodakarensis). Put plainly: native gel or EMSA.

Where “and” joins values, the source holds several entries; their conditions need not be identical. Equal entries are not always repeated.

As for “family D DNA polymerase (PolD), DP1 and DP2 (complex)”, the stoichiometry N (PolD per GINS) was 2 and 1.
